Source: paper PMC9482650, “Quantitative fragmentomics allow affinity mapping of interactomes” (Nature Communications, 2022)
Each block holds one binder with its values, some of them ahead of it.

Key:
Test in all cases: holdup assay
Parameters in all cases: key: below the threshold = too weak to quantify, mostly under pKd 3.1 to 4
MPP2, Q14168 = biological target: T1, MPP2, Q14168
T1 sequence (Q14168 180-250, limits assumed, looked up): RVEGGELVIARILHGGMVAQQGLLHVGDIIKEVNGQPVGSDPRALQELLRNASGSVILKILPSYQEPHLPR

GRIP2_5, Q9C0E4 = biological target: GRIP2_5, Q9C0E4
LNX1_2, Q8TBB1 = biological target: LNX1_2, Q8TBB1
RADIL, Q96JH8 = biological target: T2, RADIL, Q96JH8
T2 sequence (Q96JH8 971-1071, limits assumed, looked up): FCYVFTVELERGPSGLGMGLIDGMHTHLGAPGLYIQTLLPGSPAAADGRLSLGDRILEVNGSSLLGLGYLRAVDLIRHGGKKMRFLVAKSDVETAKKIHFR

SCRIB_3, Q14160 = biological target: SCRIB_3, Q14160
DLG3_2, Q92796 = biological target: T3, DLG3_2, Q92796
T3 sequence (Q92796 221-321, limits assumed, looked up): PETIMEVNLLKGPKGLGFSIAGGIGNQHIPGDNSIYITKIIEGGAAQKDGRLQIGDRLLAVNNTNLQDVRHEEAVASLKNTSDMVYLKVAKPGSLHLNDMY

DLG4_1, P78352 = biological target: DLG4_1, P78352
LRRC7, Q96NW7 = biological target: T4, LRRC7, Q96NW7
T4 sequence (Q96NW7 1440-1537, limits assumed, looked up): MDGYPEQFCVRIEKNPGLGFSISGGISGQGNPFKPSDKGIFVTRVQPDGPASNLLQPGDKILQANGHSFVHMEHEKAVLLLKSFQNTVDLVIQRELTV

NOS1, P29475 = biological target: NOS1, P29475
FRMPD3, Q5JV73 = biological target: FRMPD3, Q5JV73
GRIP1_5, Q9Y3R0 = biological target: T5, GRIP1_5, Q9Y3R0
T5 sequence (Q9Y3R0 568-668, limits assumed, looked up): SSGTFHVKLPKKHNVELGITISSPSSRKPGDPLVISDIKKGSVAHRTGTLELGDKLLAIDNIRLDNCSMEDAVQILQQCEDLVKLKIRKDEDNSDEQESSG

NHERF3_4, Q5T2W1 = biological target: T6, NHERF3_4, Q5T2W1
T6 sequence (Q5T2W1 373-468, limits assumed, looked up): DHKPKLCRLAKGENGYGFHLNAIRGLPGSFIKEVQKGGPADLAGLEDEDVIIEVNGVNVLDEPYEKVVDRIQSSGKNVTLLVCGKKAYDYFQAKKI

APBA2_1, Q99767 = biological target: T7, APBA2_1, Q99767
T7 sequence (Q99767 563-664, limits assumed, looked up): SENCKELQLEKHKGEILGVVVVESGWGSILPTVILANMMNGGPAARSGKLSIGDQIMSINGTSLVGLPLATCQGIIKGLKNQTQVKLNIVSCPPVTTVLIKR

PDLIM1, O00151 = biological target: PDLIM1, O00151
TJP1_2, Q07157 = biological target: TJP1_2, Q07157
MAST2, Q6P0Q8 = biological target: MAST2, Q6P0Q8
APBA1_2, Q02410 = biological target: T8, APBA1_2, Q02410
T8 sequence (Q02410 742-832, limits assumed, looked up): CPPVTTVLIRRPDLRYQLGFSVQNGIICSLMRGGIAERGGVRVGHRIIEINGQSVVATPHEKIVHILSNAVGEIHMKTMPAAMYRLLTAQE

MAGI2_4, Q86UL8 = biological target: MAGI2_4, Q86UL8
MAGI2_5, Q86UL8 = biological target: MAGI2_5, Q86UL8
Inadl_6, Q8NI35 = biological target: Inadl_6, Q8NI35
APBA2_2, Q99767 = biological target: T9, APBA2_2, Q99767
T9 sequence (Q99767 654-744, limits assumed, looked up): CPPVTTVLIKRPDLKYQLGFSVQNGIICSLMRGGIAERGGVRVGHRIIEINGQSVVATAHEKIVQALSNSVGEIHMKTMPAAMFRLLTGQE

SIPA1L2, Q9P2F8 = biological target: T10, SIPA1L2, Q9P2F8
T10 sequence (Q9P2F8 945-1036, limits assumed, looked up): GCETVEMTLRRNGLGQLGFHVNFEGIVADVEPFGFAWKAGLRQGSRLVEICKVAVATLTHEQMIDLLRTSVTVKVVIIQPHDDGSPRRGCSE

LNX2_2, Q8N448 = biological target: T11, LNX2_2, Q8N448
T11 sequence (Q8N448 334-432, limits assumed, looked up): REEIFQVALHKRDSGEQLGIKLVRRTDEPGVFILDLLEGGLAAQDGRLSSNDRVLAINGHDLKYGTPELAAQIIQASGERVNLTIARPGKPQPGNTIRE

TIAM2, Q8IVF5 = biological target: T12, TIAM2, Q8IVF5
T12 sequence (Q8IVF5 885-986, limits assumed, looked up): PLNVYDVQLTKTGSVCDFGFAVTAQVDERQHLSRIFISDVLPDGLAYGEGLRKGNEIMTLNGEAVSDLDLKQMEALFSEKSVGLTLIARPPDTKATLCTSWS

FRMPD1, Q5SYB0 = biological target: T13, FRMPD1, Q5SYB0
T13 sequence (Q5SYB0 52-145, limits assumed, looked up): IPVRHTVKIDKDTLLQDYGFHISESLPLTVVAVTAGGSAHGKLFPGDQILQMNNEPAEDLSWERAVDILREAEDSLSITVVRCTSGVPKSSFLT

[1] = plain residues with an end cap or a label only (N-terminal biotin on a linker: ahx)
[2] = plain residues with an end cap or a label only (N-terminal biotin on a linker: ado-ado)

Chain of GRIP2_5, Q9C0E4 (Q9C0E4 544-642): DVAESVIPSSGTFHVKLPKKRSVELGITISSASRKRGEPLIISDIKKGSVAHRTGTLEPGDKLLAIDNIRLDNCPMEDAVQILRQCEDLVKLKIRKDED
Chain of Inadl_6, Q8NI35 (Q8NI35 1058-1167): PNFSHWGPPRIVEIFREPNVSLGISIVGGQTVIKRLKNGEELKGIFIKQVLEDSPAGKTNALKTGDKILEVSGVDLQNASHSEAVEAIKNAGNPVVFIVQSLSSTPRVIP
Chain of TJP1_2, Q07157 (Q07157 181-274): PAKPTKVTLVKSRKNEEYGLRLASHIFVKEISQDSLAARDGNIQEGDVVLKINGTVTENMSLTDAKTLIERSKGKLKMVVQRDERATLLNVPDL
Chain of PDLIM1, O00151 (O00151 1-87): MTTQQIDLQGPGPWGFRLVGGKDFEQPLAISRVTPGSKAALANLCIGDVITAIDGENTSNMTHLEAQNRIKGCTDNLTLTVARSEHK
Chain of DLG4_1, P78352 (P78352 62-152): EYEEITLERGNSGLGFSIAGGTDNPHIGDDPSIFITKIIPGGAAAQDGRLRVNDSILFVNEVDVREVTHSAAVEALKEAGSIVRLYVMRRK
Chain of MAGI2_4, Q86UL8 (Q86UL8 772-865): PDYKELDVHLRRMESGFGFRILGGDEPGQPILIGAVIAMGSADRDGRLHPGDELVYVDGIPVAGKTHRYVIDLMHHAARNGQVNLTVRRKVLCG
Chain of MAGI2_5, Q86UL8 (Q86UL8 915-1017): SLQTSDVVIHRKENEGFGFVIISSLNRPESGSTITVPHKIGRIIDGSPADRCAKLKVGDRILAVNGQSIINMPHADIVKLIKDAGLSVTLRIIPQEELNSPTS
Chain of FRMPD3, Q5JV73 (Q5JV73 12-100): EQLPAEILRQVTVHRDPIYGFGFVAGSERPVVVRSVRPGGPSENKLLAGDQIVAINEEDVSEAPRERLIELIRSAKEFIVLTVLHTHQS
Chain of LNX1_2, Q8TBB1 (Q8TBB1 371-470): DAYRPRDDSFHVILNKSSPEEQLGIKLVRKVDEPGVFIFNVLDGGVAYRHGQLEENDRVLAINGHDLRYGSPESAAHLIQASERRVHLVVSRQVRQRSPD
Chain of MAST2, Q6P0Q8 (Q6P0Q8 1099-1202): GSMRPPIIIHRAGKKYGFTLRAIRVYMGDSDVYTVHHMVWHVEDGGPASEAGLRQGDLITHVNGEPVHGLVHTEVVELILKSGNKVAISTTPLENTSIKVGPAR
Chain of NOS1, P29475 (P29475 9-101): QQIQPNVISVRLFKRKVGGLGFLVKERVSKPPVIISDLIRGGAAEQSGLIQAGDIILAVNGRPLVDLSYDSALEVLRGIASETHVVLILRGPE
Chain of SCRIB_3, Q14160 (Q14160 999-1103): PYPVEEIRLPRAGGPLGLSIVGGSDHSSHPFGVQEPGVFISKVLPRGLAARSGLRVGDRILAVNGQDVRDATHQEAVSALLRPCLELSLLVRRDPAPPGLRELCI

pKd (MPP2, Q14168; [1]): below the threshold
pKd (GRIP2_5, Q9C0E4; [1]): below the threshold
pKd (LNX1_2, Q8TBB1; [1]): below the threshold
pKd (RADIL, Q96JH8; [1]): below the threshold
pKd (SCRIB_3, Q14160; [1]): 3.67
pKd (DLG3_2, Q92796; [1]): 4.04
pKd (DLG4_1, P78352; [1]): 4.19
pKd (LRRC7, Q96NW7; [1]): 3.73
pKd (NOS1, P29475; [1]): 3.6
pKd (FRMPD3, Q5JV73; [1]): below the threshold
pKd (GRIP1_5, Q9Y3R0; [1]): below the threshold
pKd (NHERF3_4, Q5T2W1; [1]): below the threshold
pKd (APBA2_1, Q99767; [1]): below the threshold
pKd (PDLIM1, O00151; [1]): below the threshold
pKd (TJP1_2, Q07157; [1]): below the threshold
pKd (MAST2, Q6P0Q8; [1]): 4.13
pKd (APBA1_2, Q02410; [1]): below the threshold
pKd (MAGI2_4, Q86UL8; [1]): below the threshold
pKd (MAGI2_5, Q86UL8; [1]): 4.33
pKd (Inadl_6, Q8NI35; [1]): below the threshold
pKd (APBA2_2, Q99767; [1]): below the threshold
pKd (SIPA1L2, Q9P2F8; [1]): below the threshold
pKd (LNX2_2, Q8N448; [1]): below the threshold
pKd (TIAM2, Q8IVF5; [1]): below the threshold
pKd (FRMPD1, Q5SYB0; [1]): below the threshold
Binder: QPRTWLQSPV [RTKN, Q9BST9]

pKd (MPP2, Q14168; [1]): below the threshold
pKd (GRIP2_5, Q9C0E4; [1]): below the threshold
pKd (LNX1_2, Q8TBB1; [1]): below the threshold
pKd (RADIL, Q96JH8; [1]): 4.89
pKd (SCRIB_3, Q14160; [1]): 4.45
pKd (DLG3_2, Q92796; [1]): 4.92
pKd (DLG4_1, P78352; [1]): 4.52
pKd (LRRC7, Q96NW7; [1]): 4.13
pKd (NOS1, P29475; [1]): 3.66
pKd (FRMPD3, Q5JV73; [1]): below the threshold
pKd (GRIP1_5, Q9Y3R0; [1]): below the threshold
pKd (NHERF3_4, Q5T2W1; [1]): 3.5
pKd (APBA2_1, Q99767; [1]): below the threshold
pKd (PDLIM1, O00151; [1]): below the threshold
pKd (TJP1_2, Q07157; [1]): below the threshold
pKd (MAST2, Q6P0Q8; [1]): 4.68
pKd (APBA1_2, Q02410; [1]): 4.29
pKd (MAGI2_4, Q86UL8; [1]): 4.04
pKd (MAGI2_5, Q86UL8; [1]): 4.58
pKd (Inadl_6, Q8NI35; [1]): 4.29
pKd (APBA2_2, Q99767; [1]): below the threshold
pKd (SIPA1L2, Q9P2F8; [1]): below the threshold
pKd (LNX2_2, Q8N448; [1]): 3.64
pKd (TIAM2, Q8IVF5; [1]): below the threshold
pKd (FRMPD1, Q5SYB0; [1]): below the threshold
Binder: QDEKVKESYV [ABCA1, O95477]

pKd (MPP2, Q14168; [2]): below the threshold
pKd (GRIP2_5, Q9C0E4; [2]): 3.7
pKd (LNX1_2, Q8TBB1; [2]): 4.13
pKd (RADIL, Q96JH8; [2]): 4.47
pKd (SCRIB_3, Q14160; [2]): 3.99
pKd (DLG3_2, Q92796; [2]): 3.88
pKd (DLG4_1, P78352; [2]): 4.01
pKd (LRRC7, Q96NW7; [2]): below the threshold
pKd (NOS1, P29475; [2]): 4.17
pKd (FRMPD3, Q5JV73; [2]): 3.49
pKd (GRIP1_5, Q9Y3R0; [2]): below the threshold
pKd (NHERF3_4, Q5T2W1; [2]): below the threshold
pKd (APBA2_1, Q99767; [2]): below the threshold
pKd (PDLIM1, O00151; [2]): 3.68
pKd (TJP1_2, Q07157; [2]): 3.78
pKd (MAST2, Q6P0Q8; [2]): 4.01
pKd (APBA1_2, Q02410; [2]): 4.77
pKd (MAGI2_4, Q86UL8; [2]): 3.65
pKd (MAGI2_5, Q86UL8; [2]): 3.67
pKd (Inadl_6, Q8NI35; [2]): 3.7
pKd (APBA2_2, Q99767; [2]): 3.63
pKd (SIPA1L2, Q9P2F8; [2]): 3.69
pKd (LNX2_2, Q8N448; [2]): 5.04
pKd (TIAM2, Q8IVF5; [2]): 3.7
pKd (FRMPD1, Q5SYB0; [2]): 3.56
Binder: EIPAQSPTCV [FZD10, Q9ULW2]
